B1: SEQ ID NO 107 (peptide)
peptide: XXQTWQCXXXENN
modifications: Ac-[(D)Arg]-cyclo[[Abu]-QTWQC]-[Phe[4-(2-aminoethoxy)]-[2-Nal]-[α-MeLeu]-ENN-NH2
B2: SEQ ID NO 105 (peptide)
peptide: XXQTXQCXXXENN
modifications: Ac-[(D)Arg]-cyclo[[Abu]-QT-[Trp(5-F)]-QC]-[Phe[4-(2-aminoethoxy)]-[2-Nal]-[α-MeLeu]-ENN-NH2
B3: SEQ ID NO 71 (peptide)
peptide: XXQTWQCXXXENN
modifications: Alexa488-[PEG4]-[(D)Arg]-cyclo[[Abu]-QTWQC]-[Phe[4-(2-aminoethoxy)]-[2-Nal]-[4-amino-4-carboxy-tetrahydropyran]-ENN-NH2
B4: SEQ ID NO 97 (peptide)
peptide: XXQTWXCXXXENN
modifications: Ac-[(D)Arg]-cyclo[[Abu]-QTW-[β-homoGln]-C]-[Phe[4-(2-aminoethoxy)]-[2-Nal]-[4-amino-4-carboxy-tetrahydropyran]-ENN-NH2
B5: SEQ ID NO 106 (peptide)
peptide: XQTXQCXXXENN
modifications: Ac-cyclo[[Abu]-QT-[Trp(5-F)]-QC]-[Phe[4-(2-aminoethoxy)]-[2-Nal]-[α-MeLeu]-ENN-NH2

What follows are binders tested against T1, interleukin-23 receptor (IL-23R) (human, UniProt Q5VWK5 24-629) (assay: cell-based or functional assay).
T1 sequence (looked up): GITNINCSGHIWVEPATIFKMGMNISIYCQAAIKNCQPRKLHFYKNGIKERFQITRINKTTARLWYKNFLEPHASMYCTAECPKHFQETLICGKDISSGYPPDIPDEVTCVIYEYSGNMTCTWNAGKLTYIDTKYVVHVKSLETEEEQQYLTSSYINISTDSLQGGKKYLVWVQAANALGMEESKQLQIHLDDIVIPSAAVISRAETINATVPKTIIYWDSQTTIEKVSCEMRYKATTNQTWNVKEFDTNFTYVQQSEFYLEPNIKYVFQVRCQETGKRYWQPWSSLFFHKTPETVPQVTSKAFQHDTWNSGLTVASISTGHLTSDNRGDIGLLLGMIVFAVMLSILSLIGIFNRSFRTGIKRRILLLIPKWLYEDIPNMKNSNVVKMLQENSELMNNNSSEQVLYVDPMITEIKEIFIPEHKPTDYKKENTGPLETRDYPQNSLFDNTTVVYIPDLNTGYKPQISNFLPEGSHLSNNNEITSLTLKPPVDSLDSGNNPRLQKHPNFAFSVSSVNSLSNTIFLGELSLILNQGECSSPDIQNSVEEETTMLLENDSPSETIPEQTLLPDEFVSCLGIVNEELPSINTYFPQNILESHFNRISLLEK

B1 and B2 cannot be ordered by “IC50, pStat3 HTRF (nM)” value: less than 1 nM for the first, less than 1 nM for the second.

Compared with B3, B4 is higher in “IC50, pStat3 HTRF (nM)” value: less than 1 nM for the first, greater than 100 nM for the second.

In the case of B5, the “IC50, pStat3 HTRF (nM)” value is reported as less than 1 nM.

Reference: patent publication US20200207822A1, “PEPTIDE INHIBITORS OF INTERLEUKIN-23 RECEPTOR AND THEIR USE TO TREAT INFLAMMATORY DISEASES” (Protagonist Therapeutics, Inc., priority 2017, published 2020)
